The source of these data is the supplement of paper PMC7877785.

A short description of this series: self-splicing fitness, log relative to wild type (ln ratio); higher = more splicing; Tetrahymena group I intron in knt gene, E. coli kanamycin selection, DiMSum; sequences stand for … in CUCUCU…GGAGGGAAAAGUUAUCAGGCAUGCACCUGGUAGCUAGUCUUUAAACCAAUAGAUUGCAUCGGUUUAAAAGGCAAGACCGUCAAAUUGCGGGAAAGGGGUCAACAGCCGUUCAGUACCAAGUCUCAGGGGAAACUUUGAGAUGGCCUUGCAAAGGGUAUGGUAAUAAGCUGACGGACAUGGUCCUAACCACGCAGCCAAGUCCUAAGUCAACAGAUCUUCUGUUGAUAUGGAUGCAGUUCACAGACUAAAUGUCGGUCGGGGAAGAUGUAUUCUUCUCAUAAGAUAUAGUCGGACCUCUCCUUAAUGGGAGCUAGCGGAUGAAGUGAUGCAACACUGGAGCCGCUGGGAACUAAUUUGUAUGCGAAAGUAUAUUGAUUAGUUUUGGAGUACUCGUGGUCG
The essentials: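 Library with all eight P1ex-region intron nucleotides randomised, intron inside the knt kanamycin-resistance gene on pET-22b(+), in E. coli BL21(DE3). Cells grew overnight at 37°C or 30°C on LB agar with or without 25 μg/mL kanamycin (plus 100 μg/mL carbenicillin, 50 μM IPTG, 0.2% rhamnose), in six replicate transformations. Pooled colonies were amplicon-sequenced on Illumina HiSeq 2500. DiMSum fitness is the error-weighted combination of wild-type-normalised replicate fold changes, kanamycin versus none.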

± gives the uncertainty stated by the source.

As for GUGGAGCAAUAUUACGAACA, the “self-splicing fitness (ln)” value runs as follows: (30 °C) -2.19 ± 0.46; (37 °C) -0.866 ± 0.45.
For GCGAAGCAAUAUUACGGCGG the same measures were -2.38 ± 0.19 and -1.34 ± 0.27.
The like results for GGGCAGCAAUAUUACGAAGC were, in that order, -1.64 ± 0.077 and -0.939 ± 0.09.
The like results for GAUUAGCAAUAUUACGCUGG were, in that order, -1.73 ± 0.14 and -1.68 ± 0.22.
Regarding AAGAAGCAAUAUUACGCGUG, the “self-splicing fitness (ln)” value is, setting by setting: (30 °C) -0.716 ± 0.073; (37 °C) -0.537 ± 0.093.
The like results for AUCUAGCAAUAUUACGCUUC were, in that order, -3.91 ± 0.36 and -2.03 ± 0.23.
For ACUUAGCAAUAUUACGGCGG the same measures were -1.06 ± 0.087 and -0.78 ± 0.096.
The like results for GGGUAGCAAUAUUACGACAG were, in that order, -2.84 ± 0.2 and -1.9 ± 0.21.
On to GGCCAGCAAUAUUACGCUUC, for which the “self-splicing fitness (ln)” value is -1.98 ± 0.15 (30 °C) and -0.344 ± 0.11 (37 °C).
The like results for UCAUAGCAAUAUUACGCCGA were, in that order, -0.67 ± 0.18 and 0.277 ± 0.18.
On to CAAAAGCAAUAUUACGACAC, for which the “self-splicing fitness (ln)” value is -3.37 ± 0.19 (30 °C) and -1.01 ± 0.15 (37 °C).
With GAUUAGCAAUAUUACGCUAG, the “self-splicing fitness (ln)” value reads like this: (30 °C) -1.95 ± 0.17; (37 °C) -0.989 ± 0.15.
Consider AUCGAGCAAUAUUACGCGGA, for which the “self-splicing fitness (ln)” value was -2.55 ± 0.17 (30 °C) and -0.974 ± 0.11 (37 °C).
The like results for GCAGAGCAAUAUUACGUUGU were, in that order, -5.06 ± 0.46 and -3.02 ± 0.29.
The like results for UCGCAGCAAUAUUACGUCAA were, in that order, -2.69 ± 0.15 and -0.094 ± 0.11.
Take UCUUAGCAAUAUUACGGAUC: under “37 °C”, the “self-splicing fitness (ln)” value was -1.69 ± 0.36.
Take CAGAAGCAAUAUUACGAGGU: the “self-splicing fitness (ln)” value was -4.11 ± 0.36 (30 °C) and -3 ± 0.32 (37 °C).
For ACCUAGCAAUAUUACGAUUA the same measures were -2.05 ± 0.15 and -1.51 ± 0.12.
Consider GAGGAGCAAUAUUACGCUGC, for which, where the note is “30 °C”, the “self-splicing fitness (ln)” value was -4.13 ± 0.38.
As to CAGCAGCAAUAUUACGUAUG, the “self-splicing fitness (ln)” value is, setting by setting: (30 °C) -2.19 ± 0.1; (37 °C) -2.5 ± 0.15.
For GAACAGCAAUAUUACGCCCA the same measures were 0.617 ± 0.17 and -0.316 ± 0.24.
The like results for UCAAAGCAAUAUUACGCUAC were, in that order, -2.96 ± 0.46 and -2.22 ± 0.37.
For GUUAAGCAAUAUUACGUCAU the same measures were -1.5 ± 0.1 and -0.179 ± 0.12.
With AGUGAGCAAUAUUACGGCGA, the “self-splicing fitness (ln)” value was -1.18 ± 0.14 (30 °C) and -2 ± 0.21 (37 °C).
For the sequence GAAAAGCAAUAUUACGACUC, the “self-splicing fitness (ln)” value was 0.143 ± 0.2 (30 °C) and -0.00506 ± 0.28 (37 °C).
On to UAGAAGCAAUAUUACGAUCU, for which the “self-splicing fitness (ln)” value reads like this: (30 °C) -1.11 ± 0.12; (37 °C) -0.261 ± 0.16.
For the sequence ACCAAGCAAUAUUACGUCAG, the “self-splicing fitness (ln)” value by setting is: (30 °C) -3.58 ± 0.15; (37 °C) -1.56 ± 0.1.
The like results for AGAUAGCAAUAUUACGUCCU were, in that order, 0.545 ± 0.095 and 0.159 ± 0.1.
For UUAGAGCAAUAUUACGCUAU the same measures were -2.27 ± 0.23 and -1.75 ± 0.26.
The like results for CUGUAGCAAUAUUACGCGUA were, in that order, -3.3 ± 0.3 and -2.89 ± 0.25.
Regarding AAGUAGCAAUAUUACGGCAG, the “self-splicing fitness (ln)” value by setting is: (30 °C) -2.54 ± 0.18; (37 °C) -1.77 ± 0.18.
The like results for GCGUAGCAAUAUUACGGGCG were, in that order, -2.97 ± 0.22 and -2.09 ± 0.22.
For CGAUAGCAAUAUUACGCAAA the same measures were -2.98 ± 0.29 and -1.92 ± 0.15.
For GACAAGCAAUAUUACGGUGA the same measures were -1.3 ± 0.065 and -0.86 ± 0.086.
Take CGUCAGCAAUAUUACGGGGU: the “self-splicing fitness (ln)” value (30 °C) was -3.29 ± 0.11 and the “self-splicing fitness (ln)” value (37 °C) is -2.33 ± 0.14.
For the sequence GGUGAGCAAUAUUACGAACU, under “30 °C”, the “self-splicing fitness (ln)” value was -2.18 ± 0.42.
For the sequence GAGUAGCAAUAUUACGCAGU, the “self-splicing fitness (ln)” value (30 °C) is -3.14 ± 0.39 and the “self-splicing fitness (ln)” value (37 °C) was -2.03 ± 0.22.
For GUCUAGCAAUAUUACGAAUC the same measures were -1.33 ± 0.19 and 1.43 ± 0.2.
The like results for GGUAAGCAAUAUUACGAGAA were, in that order, -2.48 ± 0.42 and -2.67 ± 0.37.
Consider GCGCAGCAAUAUUACGCCAA, for which the “self-splicing fitness (ln)” value (37 °C) was -1.42 ± 0.47.
Regarding GCUAAGCAAUAUUACGGGCC, the “self-splicing fitness (ln)” value (37 °C) was -2.28 ± 0.39.
Consider CUGAAGCAAUAUUACGGAUA, for which the “self-splicing fitness (ln)” value (30 °C) was -4.19 ± 0.22 and the “self-splicing fitness (ln)” value (37 °C) was -1.19 ± 0.18.
With GUAAAGCAAUAUUACGAGGG, the “self-splicing fitness (ln)” value (30 °C) was -3.57 ± 0.24.
On to UUGAAGCAAUAUUACGCGUC, for which the “self-splicing fitness (ln)” value runs as follows: (30 °C) -3.32 ± 0.33; (37 °C) -1.02 ± 0.33.
The like results for CGCUAGCAAUAUUACGUACG were, in that order, -1.66 ± 0.13 and -1.07 ± 0.13.
As to UAGAAGCAAUAUUACGCGUG, the “self-splicing fitness (ln)” value was -1.17 ± 0.13 (30 °C) and -0.211 ± 0.13 (37 °C).
As for GGCCAGCAAUAUUACGUGGG, the “self-splicing fitness (ln)” value is, setting by setting: (30 °C) -4.31 ± 0.21; (37 °C) -3.32 ± 0.26.
As to UAGCAGCAAUAUUACGUGAC, the “self-splicing fitness (ln)” value (30 °C) is -3.19 ± 0.18 and the “self-splicing fitness (ln)” value (37 °C) was -3.45 ± 0.28.
As for AGGUAGCAAUAUUACGGGCU, the “self-splicing fitness (ln)” value was -0.801 ± 0.016 (30 °C) and -0.848 ± 0.035 (37 °C).
As for ACUCAGCAAUAUUACGGCCG, the “self-splicing fitness (ln)” value by setting is: (30 °C) -1.87 ± 0.13; (37 °C) -0.609 ± 0.15.
The like results for GAACAGCAAUAUUACGCCUC were, in that order, -1.81 ± 0.17 and -1.89 ± 0.26.
For AUGUAGCAAUAUUACGUCAA the same measures were -2.9 ± 0.3 and -2.98 ± 0.35.
For UAAUAGCAAUAUUACGUCAC the same measures were -3.93 ± 0.26 and 0.0385 ± 0.19.
Turning to AGUUAGCAAUAUUACGUGGU, the “self-splicing fitness (ln)” value is, setting by setting: (30 °C) -3.34 ± 0.15; (37 °C) -3.35 ± 0.23.
For GUUGAGCAAUAUUACGUAAA the same measures were -2.7 ± 0.2 and -1.73 ± 0.19.
For UCCGAGCAAUAUUACGAUUG the same measures were -3.7 ± 0.28 and -1.77 ± 0.28.
The like results for UGUAAGCAAUAUUACGGUCG were, in that order, 0.275 ± 0.081 and -0.0342 ± 0.098.
Turning to CACCAGCAAUAUUACGUCGU, the “self-splicing fitness (ln)” value runs as follows: (30 °C) -3.78 ± 0.13; (37 °C) -1.83 ± 0.097.
For UAGUAGCAAUAUUACGACGC the same measures were -3.61 ± 0.25 and -0.996 ± 0.21.
The like results for GUUCAGCAAUAUUACGCAAG were, in that order, -0.984 ± 0.093 and -0.654 ± 0.12.
On to GCGGAGCAAUAUUACGACAC, for which the “self-splicing fitness (ln)” value (30 °C) was -0.913 ± 0.22.
In the case of ACCGAGCAAUAUUACGGUUU, the “self-splicing fitness (ln)” value (30 °C) was -3.42 ± 0.14 and the “self-splicing fitness (ln)” value (37 °C) was -2.35 ± 0.18.
